The source of these data is PMC4499159.

Data set [1] deals with X-ray repair cross-complementing protein 1 (human) (UniProt P18887). Description: dynamic light scattering; individual proteins or equimolar mixtures at 6 μM; 25 mM HEPES pH 7.5, 100 mM NaCl, 1 mM DTT; 24°C; hydrodynamic radius compared with predicted values.
Data set [2] has the same target. Description: other fluorescence titration; TAF-labelled XRCC1 at 40 nM (fixed) titrated with the unlabelled partner; 50 mM HEPES pH 8.0, 100 mM NaCl, 4 mM DTT; EC50 from a four-parameter logistic fit, apparent.
The target of data set [3] is apurinic/apyrimidinic endonuclease 1 (human) (UniProt P27695). Description: other fluorescence titration; FAM-labelled protein at 40 nM (fixed) titrated with the unlabelled partner; 50 mM HEPES pH 8.0, 100 mM NaCl, 4 mM DTT; excitation 485 nm, emission 520 nm; EC50 from a four-parameter logistic fit, an apparent equilibrium dissociation constant.
For data set [4], the target named is DNA polymerase beta (Polβ) (rat) (UniProt P06766). The experiment in a line: fluorescence titration. The note with it: 50 mM HEPES pH 8.0, 100 mM NaCl, 4 mM DTT (+10 mM EDTA for APE1), labelled protein from 20 nM, temperature not stated.
For data set [5], the target named is AP endonuclease 1 (APE1) (human) (UniProt P27695). Description: fluorescence titration. The conditions noted are these: 50 mM HEPES pH 8.0, 100 mM NaCl, 4 mM DTT (+10 mM EDTA for APE1); labelled protein from 20 nM; temperature not stated.
The target of data set [6] is XRCC1 (human) (UniProt P18887). Description: fluorescence titration. The conditions noted are these: 50 mM HEPES pH 8.0, 100 mM NaCl, 4 mM DTT (+10 mM EDTA for APE1), labelled protein from 20 nM, temperature not stated.
The target of data set [7] is FAM-labeled human apurinic/apyrimidinic endonuclease 1 (human) (UniProt P27695). Description: other fluorescence titration; 40 nM FAM-APE1 premixed with 160 nM incised AP-DNA, titrated with unlabeled partner; 50 mM HEPES pH 8.0, 100 mM NaCl, 4 mM DTT, 10 mM EDTA; EC50 from four-parameter fit, apparent.
For data set [8] the target is unchanged. The experiment in a line: other fluorescence titration; 40 nM FAM-APE1 premixed with 160 nM gap-DNA, titrated with unlabeled partner; 50 mM HEPES pH 8.0, 100 mM NaCl, 4 mM DTT, 10 mM EDTA; EC50 from four-parameter fit, apparent.
The target is the same in data set [9]. The experiment in a line: other fluorescence titration; 40 nM FAM-APE1 premixed with 160 nM AP-DNA, titrated with unlabeled partner; 50 mM HEPES pH 8.0, 100 mM NaCl, 4 mM DTT, 10 mM EDTA; EC50 from four-parameter fit, apparent.
The target in data set [10] is apurinic/apyrimidinic endonuclease 1 (human) (UniProt P27695). Description: dynamic light scattering; individual proteins or equimolar mixtures at 6 μM; 25 mM HEPES pH 7.5, 100 mM NaCl, 1 mM DTT; 24°C; hydrodynamic radius compared with predicted values.
The target in data set [11] is DNA polymerase β (rat) (UniProt P06766). Description: FRET or BRET; FAM-labelled protein (donor, 40 nM, fixed) titrated with the TMR-labelled partner (acceptor); corrected for acceptor signal; E = 1 - Fda/Fd; EC50 is that of the TMR-labelled partner; 50 mM HEPES pH 8.0, 100 mM NaCl, 4 mM DTT; apparent.
Data set [12] has as its target apurinic/apyrimidinic endonuclease 1 (human) (UniProt P27695). The data set is described as above.

What is called stoichiometry N is a count of units in the complex or per binding partner. In general, EC50 refers to the midpoint of the concentration-response curve. “X-ray repair cross-complementing protein 1 (from UniProt P18887 1-633) (natural protein)”: in data set [1], the stoichiometry N is 2. Moreover, the EC50 in [2] stood at 73 nM; in data set [3], 76 nM.

As to “GGCGATTAAGTTGGGTAACGTCAGGGTCTTCC (double strand) [ds-DNA]”, the K half in data set [4] stood at 160 nM; in data set [5], 100 nM; in data set [6], 110 nM.

Regarding pUC19, the K half in data set [4] came to 2400 nM; in [6] (TAF-XRCC1, n 0.63) it was 1700 nM.

With nick-pUC19, the K half came to 30 nM in data set [4] (nicked by N.Bst9I) and 10 nM in [6] (TAF-XRCC1, n 0.60, nicked by N.Bst9I).

As to “GGCGATTAAGTTGGGNAACGTCAGGGTCTTCC / GGAAGACCCTGACGTTACCCAACTTAATCGCC [AP-DNA]”, the K half in [4] (N16 of strand 1 = THF abasic site) is 20 nM.

For “human X-ray repair cross-complementing protein 1 (from UniProt P18887 1-633) (natural protein)”, the concentration giving a half-maximal response (EC50) is 83 nM in data set [7], 51 nM in data set [8] and 78 nM in [9].

On to “apurinic/apyrimidinic endonuclease 1 (from UniProt P27695 1-318) (enzyme)”, for which the stoichiometry N in data set [10] and in data set [3] was 2 throughout. In addition, the EC50 is 90 nM in [11], 130 nM in data set [12] and 120 nM in data set [3]. Besides, the FRET efficiency E in [11] came out at 0.37.
